Values joined by “and” are separate entries in the source; they are usually repeats but may differ in a detail not shown here. Equal entries are not always repeated. Where two headings read alike, the source gives them in different places.
Tests used:
human alpha-synuclein [1] = molecular target: T1, human alpha-synuclein (human, UniProt P37840 1-140); assay: SPR Biacore 3000, IgG captured by anti-human IgG on CM5 chip
human alpha-synuclein [2] = molecular target: T1, human alpha-synuclein; assay: SPR Biacore 3000, synuclein ligand format
human alpha-synuclein [3] = molecular target: T1, human alpha-synuclein; assay: SPR Biacore 3000, IgG captured by anti-human IgG on CM5 chip; remark: listed apart in the source
human gamma-synuclein [4] = molecular target: T2, human gamma-synuclein (human, UniProt O76070 1-127); assay: Octet (ForteBio), antibody coupled to amine-reactive sensors, synuclein in solution [continued), Human gamma-syn]
T2 construct: Screening ligand; also called Gamma Panel
T2 sequence (O76070 whole entry): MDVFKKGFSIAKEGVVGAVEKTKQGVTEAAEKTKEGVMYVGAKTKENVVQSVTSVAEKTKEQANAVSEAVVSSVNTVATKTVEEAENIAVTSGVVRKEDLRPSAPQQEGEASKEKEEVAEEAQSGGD
Excerpt: (§1) Amine reactive sensors (ForteBio, art. no. 18-0008) were used for immobilization of HuMabs. […] Activated sensors were immobilized with HuMabs during 600 seconds.

human beta-synuclein [5] = molecular target: T3, human beta-synuclein (human, UniProt Q16143 1-134); assay: Octet (ForteBio), antibody coupled to amine-reactive sensors, synuclein in solution [Human beta-syn]
T3 construct: Screening ligand; also called Beta Panel
T3 sequence (Q16143 whole entry): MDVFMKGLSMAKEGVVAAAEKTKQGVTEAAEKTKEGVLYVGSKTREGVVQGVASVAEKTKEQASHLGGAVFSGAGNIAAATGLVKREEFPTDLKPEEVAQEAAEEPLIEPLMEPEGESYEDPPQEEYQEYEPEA
Excerpt: as §1

human alpha-synuclein [6] = molecular target: T1, human alpha-synuclein; assay: SPR BIAcore 3000, antibody captured by goat anti-human IgG on CM5 chip, human alpha-synuclein as analyte; calculated binding constants [continued) C]
human alpha-synuclein [7] = molecular target: T1, human alpha-synuclein; assay: SPR BIAcore T200, human alpha-synuclein immobilised, antibody as analyte, 1:1 binding fit
human alpha-synuclein [8] = molecular target: T1, human alpha-synuclein; assay: SPR BIAcore 3000, antibody captured by goat anti-human IgG on CM5 chip, human alpha-synuclein as analyte; calculated binding constants [continued) C]; remark: listed apart in the source
human beta-synuclein [9] = molecular target: T3, human beta-synuclein; assay: Octet (ForteBio), antibody coupled to amine-reactive sensors, synuclein in solution [continued), Human beta-syn]
human gamma-synuclein [10] = molecular target: T2, human gamma-synuclein; assay: Octet (ForteBio), antibody coupled to amine-reactive sensors, synuclein in solution [continued), Human gamma-syn]; remark: listed apart in the source
human alpha-synuclein [11] = molecular target: T1, human alpha-synuclein; assay: SPR BIAcore 3000, antibody captured by goat anti-human IgG on CM5 chip, human alpha-synuclein as analyte; calculated binding constants [continued) C]; remark: listed apart in the source

B1: ch2E6 (antibody, V domains shown)
VH: QVQLQQPGAELVKPGASVKLSCTASGYTFTSYWMHWMKQRPGRGLEWIGRIDPNSGTTKYNVNFKTKATLTVDKPSSTAYMHLSSLTSEDSAVYYCARLGHYGNLYAMDYWGQGTSVT
VL: QIVLTQSPAIMSASPGEKVTMTCSASSSVSYMHWYQQKSGTSPKRWIYDTSKLASGVPTRFSGSGSGTSYSLTISSMDTEDAATYYCQQWSSNPPTFGAGTKLELK
notes: also called chimeric 2E6
Human alpha-synuclein [1]
  KD improvement: 1 fold
  Ka: 1.76e+07 M⁻¹
  Kd: 56.7 nM
  koff: 0.00139 s⁻¹
  kon: 24500 M⁻¹ s⁻¹
Human alpha-synuclein [2]
  KD improvement: 1 fold
  Ka: 2.38e+08 M⁻¹
  Kd: 4.21 nM
  koff: 0.000265 s⁻¹
  kon: 62900 M⁻¹ s⁻¹
Human alpha-synuclein [3]
  KD improvement: 1 fold
  Ka: 1.76e+07 M⁻¹
  Kd: 56.7 nM
  koff: 0.00139 s⁻¹
  kon: 24500 M⁻¹ s⁻¹

B2: GM37 (antibody, V domains shown)
VH: EVQLLESGGGLVQTGGSLRLSCAASGFTFSSYAMTWVRQAPGKGLEWVSAIRSNGDRTDYADSVKGRFTISRDNSQNTLYLQMNSLRAEDTAVYYCAKNWAPFDSWGQGTLVT
VL: not shown
notes: also called GM37wt; GM37 wt
Human gamma-synuclein [4]
  binding result: no binding
Human beta-synuclein [5]
  binding result: no binding
Human alpha-synuclein [6]
  Ka: 2.33e+08 M⁻¹
  Kd: 4.29 nM
Human alpha-synuclein [7]
  Kd: 27 nM and 28 nM
  koff: 0.0192 s⁻¹ and 0.0148 s⁻¹
  kon: 701000 M⁻¹ s⁻¹ and 528000 M⁻¹ s⁻¹

B3: GM37 variant 3 (antibody, V domains shown)
VH: EVQLLESGGGLVQTGGSLRLSCAASGFTFSSYAMTWVRQAPGKGLEWVSAIRSHGDRTDYADSVKGRFTISRDNSQNTLYLQMNSLRAEDTAVYYCAKNWAPFDSWGQGTLVT
VL: not shown
Human alpha-synuclein [7]
  Kd: 40 nM
  koff: 0.0228 s⁻¹
  kon: 577000 M⁻¹ s⁻¹

B4: GM37 variant 1 (antibody, V domains shown)
VH: EVQLLESGGGLVQTGGSLRLSCAASGFTFSSYAMTWVRQAPGKGLEWVSAIRSSGDRTDYADSVKGRFTISRDNSQNTLYLQMNSLRAEDTAVYYCAKNWAPFDSWGQGTLVT
VL: not shown
Human alpha-synuclein [7]
  Kd: 22 nM
  koff: 0.0137 s⁻¹
  kon: 634000 M⁻¹ s⁻¹

B5: 2E6-HLD-1 (antibody, V domains shown)
VH: QVQLVQSGAEVKKPGASVKVSCKASGYTFTSYWMHWMRQAPGQGLEWIGRIDPNSGTTKYNVNFKTRATLTVDKSTSTAYMELSSLRSEDTAVYYCARLGHYGNLYAMDYWGQGTLVT
VL: EIVLTQSPATLSLSPGERATLSCSASSSVSYMHWYQQKPGQAPRRWIYDTSKLASGVPARFSGSGSGTDYTLTISSLEPEDFAVYYCQQWSSNPPTFGQGTKLEIKR
notes: Humanized 2E6 tested as IgG; also called Humanized HLD-1
Human alpha-synuclein [1]
  KD improvement: 2.5 fold
  Ka: 4.4e+07 M⁻¹
  Kd: 22.7 nM
  koff: 0.000944 s⁻¹
  kon: 41600 M⁻¹ s⁻¹
Human alpha-synuclein [2]
  KD improvement: 2 fold
  Ka: 5.81e+08 M⁻¹
  Kd: 1.72 nM
  koff: 0.000212 s⁻¹
  kon: 123000 M⁻¹ s⁻¹
Human alpha-synuclein [3]
  KD improvement: 2.5 fold
  Ka: 4.4e+07 M⁻¹
  Kd: 22.7 nM
  koff: 0.000944 s⁻¹
  kon: 41600 M⁻¹ s⁻¹

B6: 9C12 (antibody, V domains shown)
VH: QVQLVQSGAEVKKPGASVKVSCKASGYTFTSYWMHWMRQAPGQGLEWIGRIDPNSGTTKYNVNIKTRATLTVDKSTSTAYMELSSLRSEDTAVYYCARLGHYGNLYAMDYWGQGTLVT
VL: EIVLTQSPATLSLSPGERATLSCSASSSVSYMHWYQQKPGQAPRRLIYDTSKLASGVPARFSGSGSGTDYTLTISSLEPEDFAVYYCQQWSSNPPTFGQGTKLEIK
Human alpha-synuclein [3]
  KD improvement: 10 fold
  Ka: 1.78e+08 M⁻¹
  Kd: 5.62 nM
  koff: 0.000278 s⁻¹
  kon: 49500 M⁻¹ s⁻¹

B7: 2E6-HLD-2 (antibody, V domains shown)
VH: QVQLVQSGAEVKKPGASVKVSCKASGYTFTSYWMHWVRQAPGQGLEWIGRIDPNSGTTKYNVNFKTRATLTVDKSTSTAYMELSSLRSEDTAVYYCARLGHYGNLYAMDYWGQGTLVT
VL: EIVLTQSPATLSLSPGERATLSCSASSSVSYMHWYQQKPGQAPRRWIYDTSKLASGVPARFSGSGSGTDYTLTISSLEPEDFAVYYCQQWSSNPPTFGQGTKLEIKR
notes: Humanized 2E6
Human alpha-synuclein [2]
  KD improvement: 1 fold
  Ka: 2.04e+08 M⁻¹
  Kd: 4.91 nM
  koff: 0.000285 s⁻¹
  kon: 58000 M⁻¹ s⁻¹

B8: 2E6 HLD 3 (antibody, V domains shown)
VH: QVQLVQSGAEVKKPGASVKVSCKASGYTFTSYWMHWMRQAPGQGLEWIGRIDPNSGTTKYNVNFKTRVTLTVDKSTSTAYMELSSLRSEDTAVYYCARLGHYGNLYAMDYWGQGTLVT
VL: EIVLTQSPATLSLSPGERATLSCSASSSVSYMHWYQQKPGQAPRRWIYDTSKLASGVPARFSGSGSGTDYTLTISSLEPEDFAVYYCQQWSSNPPTFGQGTKLEIKR
Human alpha-synuclein [2]
  KD improvement: 1 fold
  Ka: 1.88e+08 M⁻¹
  koff: 0.00026 s⁻¹
  kon: 48900 M⁻¹ s⁻¹

B9: 8D9 (antibody, V domains shown)
VH: QVQLVQSGAEVKKPGASVKVSCKASGYTFTSYWMHWMRQAPGQGLEWIGRIDPNSGTTKYNVNFKTRATLTVDKSTSTAYMELSSLRSEDTAVYYCARLGHYGNLYAKDYWGQGTLVT
VL: EIVLTQSPATLSLSPGERATLSCSASSSVSYIHWYQQKPGQAPRRWIYDTSKLASGVPARFSGSGSGTDYTLTISSLEPEDFAVYYCQQWSSNPPTFGQGTKLEIK
Human alpha-synuclein [3]
  KD improvement: 8.7 fold
  Ka: 1.53e+08 M⁻¹
  Kd: 6.52 nM
  koff: 0.000483 s⁻¹
  kon: 74100 M⁻¹ s⁻¹

B10: 7C4 (antibody, V domains shown)
VH: QVQLVQSGAEVKKPGASVKVSCKASGYTFTRYWMHWMRQAPGQGPEWIGRIDPNSGTTKYNVNFKTRATLTVDKSTSTAYMELSSLRSEDTAVYYCARLGHYGNLYAMDYWGQGTLVT
VL: EIVLTQSPATLSLSPGERATLSCSASSSVSFMHWYQQKPGQAPRRWIYDTSKLASGVPARFSGSGSGTDYTLTISSLEPEDFAVYYCQQWSSNPPTFGQGTKLEIK
Human alpha-synuclein [3]
  KD improvement: 7 fold
  Ka: 1.23e+08 M⁻¹
  Kd: 8.12 nM
  koff: 0.000997 s⁻¹
  kon: 123000 M⁻¹ s⁻¹

B11: 9E4 (antibody, V domains shown)
VH: EVQLVESGGGLVQPGGSLRLSCAASGFTFSNYGMSWVRQAPGKGLEWVASISSGGGSTYYPDNVKGRFTISRDNAKNSLYLQMNSLRAEDTAVYYCARGGAGIDYWGQGTLVTVSS
VL: DIQMTQSPSSLSASVGDRVTITCKSIQTLLYSSNQKNYLAWFQQKPGKAPKLLIYWASIRKSGVPSRFSGSGSGTDFTLTISSLQPEDLATYYCQQYYSYPLTFGGGTKLEIKR
notes: Generated from the VH and VL of hybridoma PTA-8221; also called comparator antibody 9E4
Human alpha-synuclein [8]
  Ka: 2.58e+08 M⁻¹
  Kd: 3.88 nM

B12: GM285 (antibody, V domains shown)
VH: EVQLLESGGGLVQPGGSLRLSCAASGFTFSRFTMTWVRQAPGKGLEWVSAISGSGGGTSYADSVKGRLTVSRDNSKNTLYLQMNSLRAEDTAVYYCAKNWAPFDYWGQGTLVT
VL: not shown
notes: Human IgG1/kappa
Human beta-synuclein [9]
  binding result: no binding
Human gamma-synuclein [10]
  binding result: no binding
Human alpha-synuclein [11]
  Ka: 2.33e+08 M⁻¹
  Kd: 4.3 nM

Source: US20180179273A1 (H LUNDBECK A S, published 2018)
